Results on 8 proteins are retold here after article PMC6751238, “The first fungal laccase with an alkaline pH optimum obtained by directed evolution and its application in indigo dye decolorization” (AMB Express, 2019).

Substitutions are numbered along the chain they refer to. Numbers in names are those of the source.

Substrate in data set [1]: COc1ccccc1O
Nature of the data set: purified protein.

Substrate in data set [2]: COc1cccc(OC)c1O
Nature of the data set: purified protein. It is filed as biochemical, Coprinopsis cinerea.

The mark [3] stands for this setting: PIE5, pH 8.5, 60 °C, pH 8.5, 60.0 °C.
Where [4] appears, read: pH 6.5, 70 °C as printed in table (text says 60 °C), pH 6.5.

B1: rLcc9 (Coprinopsis cinerea okayama7#130; E116K/I393T) (protein)
chain: QILGPTSTMTVSNIDASPDGFNRPVVAVNGQHPGPLVRANKGDNFRINVVNDLNDPTMLRQTSVHWHGVFQHGTAWADGPDGVTQCPIAQNGESFKYRFNAGNEAGTFWYHSHFGTQYCDGLRGPLVIYDPNDPHRNLYDVDNADTVITLVDWYHLQAPSIEGPALSDATLINGKGRRPGGPETDIAIVNVQRNRRYRFRLVSMSCDPNYKFSIDGHKLTVIEADGQLTEPLMVDEIQIFAGQRYSFVLSANRPVGNYWIRAIPNVGSNNLPNFSSGGINSAILRYAGAPNANPTSTPVTNPVALHESNLHALLNPGAPGGSGPADENIVLQMGLGPAGFEINGVTWANPDSPVMVQIMNGVPPADIVPSGATHTLPRNRVVEVSIPGFELAGPHPFHLHGHAFSVVRSAGSSTYNYENPVRRDVVDVGGASDNVTIRFTTDNPGPWFFHCHIEFHLVLGLAMVFMEAPSDIPSTSPPPPSWSELCPKFESLPASATSIQIVPTP
In general, Km refers to the substrate concentration at which the rate is half of its maximum. What is called kcat is the maximal rate divided by the concentration of active sites. The term kcat/Km denotes the turnover number divided by the Michaelis constant. In the case of B1, in “purified protein [1]” (pH 6.5, 60 °C, pH 6.5, 60.0 °C), the Km amounted to 110 µM, the turnover number (kcat) is 46 s⁻¹ and the kcat/Km came out at 390000 M⁻¹ s⁻¹.

B2: rLcc9 (Coprinopsis cinerea okayama7#130; E116K/I393T/N229D) (protein)
chain: B1 chain with N209D
notes: lcc9 cDNA in pPIC9K (EcoRI/NotI), secreted from Pichia pastoris GS115, purified (DEAE-Sepharose); PIE5 = E116K/N229D/I393T
For the protein B2, in “purified protein [1]” (setting [3]), the Km was found to be 330 µM, the kcat was determined as 62.9 s⁻¹ and the kcat/Km came to 180000 M⁻¹ s⁻¹. Moreover, in “purified protein [2]” (PIE5, pH 8.0, 60 °C), the Km was 5.7 mM, the kcat came out at 43.5 s⁻¹ and the kcat/Km is 7500 M⁻¹ s⁻¹.

B3: rLcc9 (Coprinopsis cinerea okayama7#130; E116K) (protein)
chain: B1 chain with T373I
In the case of B3, in “purified protein [1]” (pH 6.5, 60 °C, pH 6.5, 60.0 °C), the Km was determined as 320 µM, the turnover number (kcat) was determined as 85.8 s⁻¹ and the kcat/Km was 250000 M⁻¹ s⁻¹.

B4: rLcc9 (Coprinopsis cinerea okayama7#130; I393T) (protein)
chain: B1 chain with K96E
notes: as for B2
As for B4, in “purified protein [1]” (pH 7.0, 60 °C, pH 7.0, 60.0 °C), the Km amounted to 140 µM, the kcat amounted to 83.9 s⁻¹ and the kcat/Km was determined as 570000 M⁻¹ s⁻¹. In the data set “purified protein [2]” (pH 7.0, 60 °C), the Km is 1.2 mM, the kcat turned out to be 49.2 s⁻¹ and the kcat/Km was 38000 M⁻¹ s⁻¹.

B5: rLcc9 (Coprinopsis cinerea okayama7#130; I393T/N229D) (protein)
chain: B1 chain with K96E, N209D
On to B5, for which, in the data set “purified protein [1]” (pH 8.0, 60 °C, pH 8.0, 60.0 °C), the Km was 340 µM, the kcat is 82.5 s⁻¹ and the kcat/Km is 230000 M⁻¹ s⁻¹.

B6: rLcc9 (Coprinopsis cinerea okayama7#130; E116K/N229D) (protein)
chain: B1 chain with N209D, T373I
With B6, in “purified protein [1]” (pH 8.0, 60 °C, pH 8.0, 60.0 °C), the Km was 340 µM, the kcat turned out to be 75.4 s⁻¹ and the kcat/Km was found to be 210000 M⁻¹ s⁻¹.

B7: rLcc9 (Coprinopsis cinerea okayama7#130; N229D) (protein)
chain: B1 chain with K96E, N209D, T373I
notes: as for B2
For the protein B7, in “purified protein [1]” (pH 8.0, 60 °C, pH 8.0, 60.0 °C), the Km stood at 370 µM, the kcat turned out to be 87.3 s⁻¹ and the kcat/Km worked out at 230000 M⁻¹ s⁻¹. Moreover, in the data set “purified protein [2]” (pH 8.0, 60 °C), the Km amounted to 2.6 mM, the kcat is 66.2 s⁻¹ and the kcat/Km came out at 25000 M⁻¹ s⁻¹.

B8: rLcc9 (Coprinopsis cinerea okayama7#130) (protein)
chain: B1 chain with K96E, T373I
notes: as for B2
Turning to B8, in “purified protein [1]” (setting [4]), the Km stood at 90 µM, the kcat was 22.8 s⁻¹ and the kcat/Km came to 250000 M⁻¹ s⁻¹. In addition, in the data set “purified protein [2]” (pH 6.5, 60 °C), the Km was found to be 2.3 mM, the kcat stood at 69.4 s⁻¹ and the kcat/Km stood at 30000 M⁻¹ s⁻¹.
